The values that follow come from PMC10897327.

Experiment in all cases: native gel or EMSA; NativePAGE 3-12% Bis-Tris gel with Coomassie G-250, immunoblot for 52K; purified MBP-52K fusion proteins with or without TEV protease cleavage for 1 h at room temperature
For orientation: In EMSA bound probe runs differently from free probe, usually more slowly.

Test [1] addresses MBP-52K fusion protein, S28/75A (MBP tag not removed) (human adenovirus type C5 (Ad5)).
Test [2] deals with MBP-52K fusion protein, S28/75D (MBP tag not removed) (human adenovirus type C5 (Ad5)).
For test [3], the target named is MBP-52K fusion protein, wild type (MBP tag not removed) (human adenovirus type C5 (Ad5)).
Test [4] has as its target recombinant 52K S28/75A released from MBP-52K by TEV protease (human adenovirus type C5 (Ad5)).
Test [5] has as its target recombinant 52K S28/75D released from MBP-52K by TEV protease (human adenovirus type C5 (Ad5)).
Test [6] deals with recombinant WT 52K released from MBP-52K by TEV protease (human adenovirus type C5 (Ad5)).

Take “MBP-52K fusion protein, S28/75A (MBP tag not removed) (natural protein)”: the stoichiometry N in test [1] stood at 2.

Consider “MBP-52K fusion protein, S28/75D (MBP tag not removed) (natural protein)”, for which, in test [2], the stoichiometry N was found to be 2.

In test [3], “MBP-52K fusion protein, wild type (MBP tag not removed) (natural protein)” had a stoichiometry N of 2.

Take “recombinant 52K S28/75A released from MBP-52K by TEV protease (natural protein)”: the stoichiometry N in test [4] is 2.

With “recombinant 52K S28/75D released from MBP-52K by TEV protease (natural protein)”, the stoichiometry N in test [5] came to 2.

Consider “recombinant WT 52K released from MBP-52K by TEV protease (natural protein)”, for which the stoichiometry N in test [6] was found to be 2.

A word on the stoichiometry N: it is a count of units in the complex or per binding partner.
